Measurements reported in IntAct's records for PubMed 19759014.

B1: Zinc transporter 6 (Homo sapiens), Q6NXT4 (parent)
chain: MGTIHLFRKPQRSFFGKLLREFRLVAADRRSWKILLFGVINLICTGFLLMWCSSTNSIALTAYTYLTIFDLFSLMTCLISYWVTLRKPSPVYSFGFERLEVLAVFASTVLAQLGALFILKESAERFLEQPEIHTGRLLVGTFVALCFNLFTMLSIRNKPFAYVSEAASTSWLQEHVADLSRSLCGIIPGLSSIFLPRMNPFVLIDLAGAFALCITYMLIEINNYFAVDTASAIAIALMTFGTMYPMSVYSGKVLLQTTPPHVIGQLDKLIREVSTLDGVLEVRNEHFWTLGFGSLAGSVHVRIRRDANEQMVLAHVTNRLYTLVSTLTVQIFKDDWIRPALLSGPVAANVLNFSDHHVIPMPLLKGTDDLNPVTSTPAKPSSPPPEFSFNTPGKNVNPVILLNTQTRPYGFGLNHGHTPYSSMLNQGLGVPGIGATQGLRTGFTNIPSRYGTNNRIGQPRP

Variants of: B1
Conditions: with znt5_human SLC30A5, Q8TAD4
znt5_human SLC30A5, Q8TAD4, sequence (Q8TAD4 whole entry): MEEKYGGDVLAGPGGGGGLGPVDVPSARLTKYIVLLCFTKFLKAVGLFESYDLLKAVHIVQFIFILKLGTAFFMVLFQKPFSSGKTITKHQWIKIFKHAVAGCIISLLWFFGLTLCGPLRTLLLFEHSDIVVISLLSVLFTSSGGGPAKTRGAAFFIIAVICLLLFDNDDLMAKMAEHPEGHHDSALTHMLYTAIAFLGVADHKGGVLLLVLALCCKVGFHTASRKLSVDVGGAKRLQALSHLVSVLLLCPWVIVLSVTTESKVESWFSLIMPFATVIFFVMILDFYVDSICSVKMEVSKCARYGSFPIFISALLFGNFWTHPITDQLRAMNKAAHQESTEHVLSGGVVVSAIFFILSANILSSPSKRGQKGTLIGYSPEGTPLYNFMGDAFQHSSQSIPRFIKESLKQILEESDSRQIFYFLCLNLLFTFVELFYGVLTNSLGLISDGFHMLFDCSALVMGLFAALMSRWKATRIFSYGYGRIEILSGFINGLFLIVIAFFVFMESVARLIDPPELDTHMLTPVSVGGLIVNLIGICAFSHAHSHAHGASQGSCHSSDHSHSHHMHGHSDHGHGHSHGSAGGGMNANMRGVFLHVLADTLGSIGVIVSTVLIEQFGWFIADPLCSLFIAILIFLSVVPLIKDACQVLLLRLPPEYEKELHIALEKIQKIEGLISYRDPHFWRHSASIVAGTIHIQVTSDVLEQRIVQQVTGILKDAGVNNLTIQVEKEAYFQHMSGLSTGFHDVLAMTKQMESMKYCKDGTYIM

effect of a mutation on the interaction	Variant
with no effect	MGTIHLFRKPQRSFFGKLLREFRLVAADRRSWKILLFGVINLICTGFLLMWCSSTNSIALTAYTYLTIFALFSLMTCLISYWVTLRKPSPVYSFGFERLEVLAVFASTVLAQLGALFILKESAERFLEQPEIHTGRLLVGTFVALCFNLFTMLSIRNKPFAYVSEAASTSWLQEHVADLSRSLCGIIPGLSSIFLPRMNPFVLIALAGAFALCITYMLIEINNYFAVDTASAIAIALMTFGTMYPMSVYSGKVLLQTTPPHVIGQLDKLIREVSTLDGVLEVRNEHFWTLGFGSLAGSVHVRIRRDANEQMVLAHVTNRLYTLVSTLTVQIFKDDWIRPALLSGPVAANVLNFSDHHVIPMPLLKGTDDLNPVTSTPAKPSSPPPEFSFNTPGKNVNPVILLNTQTRPYGFGLNHGHTPYSSMLNQGLGVPGIGATQGLRTGFTNIPSRYGTNNRIGQPRP [D70A;D205A]
with no effect	MGTIHLFRKPQRSFFGKLLREFRLVAADRRSWKILLFGVINLICTGFLLMWCSSTNSIALTAYTYHTIFDLFSLMTCLISYWVTLRKPSPVYSFGFERLEVLAVFASTVLAQLGALFILKESAERFLEQPEIHTGRLLVGTFVALCFNLFTMLSIRNKPFAYVSEAASTSWLQEHVADLSRSLCGIIPGLSSIFLPRMNPHVLIDLAGAFALCITYMLIEINNYFAVDTASAIAIALMTFGTMYPMSVYSGKVLLQTTPPHVIGQLDKLIREVSTLDGVLEVRNEHFWTLGFGSLAGSVHVRIRRDANEQMVLAHVTNRLYTLVSTLTVQIFKDDWIRPALLSGPVAANVLNFSDHHVIPMPLLKGTDDLNPVTSTPAKPSSPPPEFSFNTPGKNVNPVILLNTQTRPYGFGLNHGHTPYSSMLNQGLGVPGIGATQGLRTGFTNIPSRYGTNNRIGQPRP [L66H;F201H]
